Assay results published in patent publication US6506874.

T1: human IGFBP-1 (human, UniProt P08833 26-259)
T1 construct: Secreted recombinant protein
T1 sequence (looked up): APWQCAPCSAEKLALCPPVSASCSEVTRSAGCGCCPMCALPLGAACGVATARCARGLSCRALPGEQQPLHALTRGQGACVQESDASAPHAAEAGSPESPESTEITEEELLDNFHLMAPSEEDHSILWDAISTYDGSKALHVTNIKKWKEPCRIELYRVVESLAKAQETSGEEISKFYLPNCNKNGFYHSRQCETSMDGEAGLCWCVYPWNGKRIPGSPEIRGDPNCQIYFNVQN


How the values were obtained:
[1] = target: T1, human IGFBP-1; test: competitive phage ELISA
Method: (§1) Phage particles were harvested and resuspended in PBS buffer as described in Lowman, H. B., "Phage Display of Peptide Libraries on Protein Scaffolds," in Cabilly, S. (ed.), *Combinatorial Peptide Library Protocols* (Humana Press Inc.: Totowa, N.J., 1998), pp. 249–264. Then phage concentrations were normalized to yield a maximal ELISA signal of 0.2–0.4 for each mutant (Lowman, in Cabilly, S. (ed.), supra). Threefold serial dilutions of soluble competitor were prepared on non-absorbent microtiter plates (Nunc, F, 96 wells) with binding buffer (0.5% TWEEN™ 20/PBS) containing phage at the previously-determined concentrations. The dilution range of competitor protein extended over six orders of magnitude, starting at 5 μM for IGFBP-1 and 500 nM for IGFBP-3. After blocking, the plates containing immobilized target were washed with 0.05% TWEEN™ PBS buffer and subsequently incubated with 80 μl/well of the premixed phage-competitor solutions for 1 hour at room temperature. […] Numbers in Table I represent mean ±standard deviation of individually assessed $IC50$ values.
(§2) At least two different clones of every mutant were tested.

[2] = target: T1, human IGFBP-1; test: competitive phage ELISA, soluble IGFBP-1
Method: as §1, §2

[3] = target: T2, recombinant human IGFBP-3 (human, UniProt P17936 28-291); test: competitive phage ELISA, soluble IGFBP-3
T2 construct: Secreted recombinant protein
Method: as §1, §2

T2 sequence (P17936 28-291 limits assumed): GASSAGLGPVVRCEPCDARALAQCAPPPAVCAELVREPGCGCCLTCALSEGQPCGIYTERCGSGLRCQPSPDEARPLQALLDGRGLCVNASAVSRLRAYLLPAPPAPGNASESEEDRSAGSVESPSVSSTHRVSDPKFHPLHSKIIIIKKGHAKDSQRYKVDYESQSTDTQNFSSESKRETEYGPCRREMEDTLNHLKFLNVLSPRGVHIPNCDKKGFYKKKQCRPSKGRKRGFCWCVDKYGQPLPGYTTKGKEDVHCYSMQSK

Binder	fold increase in binding [1] [fold]	IC50 [2] [nM]	IC50 [3] [nM]
IGF-I D12A (on G1S-A70V) displayed on phage (ligand, not shown: Display partner: M13 gene III protein fragment (residues 249-406) and the junction to it) SPETLCGAELVAALQFVCGDRGFYFNKPTGYGSSSRRAPQTGIVDECCFRSCDLRRLEMYCAPLKPAKSV	~2	–	–
IGF-I D45A (on G1S-A70V) displayed on phage (ligand, not shown: M13 gene III fragment (residues 249-406) used as phage-display carrier, and its junction to IGF-I) SPETLCGAELVDALQFVCGDRGFYFNKPTGYGSSSRRAPQTGIVAECCFRSCDLRRLEMYCAPLKPAKSV	~2	–	–
IGF-I E9A (on G1S-A70V) displayed on phage (ligand, not shown: large carriers, disulfide (positions not given here); not fully specified; also: displayed on M13 phage as gene III fusion) SPETLCGAALVDALQFVCGDRGFYFNKPTGYGSSSRRAPQTGIVDECCFRSCDLRRLEMYCAPLKPAKSV	–	8.6	1.32
IGF-I G7A (on G1S-A70V) displayed on phage (ligand, not shown: large carriers, disulfide (positions not given here); not fully specified; also: displayed on M13 phage as gene III fusion) SPETLCAAELVDALQFVCGDRGFYFNKPTGYGSSSRRAPQTGIVDECCFRSCDLRRLEMYCAPLKPAKSV	–	–	4.58
IGF-I G30A (on G1S-A70V) displayed on phage (ligand, not shown: large carriers) SPETLCGAELVDALQFVCGDRGFYFNKPTAYGSSSRRAPQTGIVDECCFRSCDLRRLEMYCAPLKPAKSV	–	7.1	0.58
IGF-I G32A (on G1S-A70V) displayed on phage (ligand, not shown: large carriers) SPETLCGAELVDALQFVCGDRGFYFNKPTGYASSSRRAPQTGIVDECCFRSCDLRRLEMYCAPLKPAKSV	–	10.9	0.76
IGF-I P2A (on G1S-A70V) displayed on phage (ligand, not shown: M13 gene III fragment (residues 249-406) used as phage-display carrier, and its junction to IGF-I) SAETLCGAELVDALQFVCGDRGFYFNKPTGYGSSSRRAPQTGIVDECCFRSCDLRRLEMYCAPLKPAKSV	–	11	0.81
IGF-I P28A (on G1S-A70V) displayed on phage (ligand, not shown: large carriers; small tags and cut ends) SPETLCGAELVDALQFVCGDRGFYFNKATGYGSSSRRAPQTGIVDECCFRSCDLRRLEMYCAPLKPAKSV	–	9.3	1.41
IGF-I S33A (on G1S-A70V) displayed on phage (ligand, not shown: large carriers) SPETLCGAELVDALQFVCGDRGFYFNKPTGYGASSRRAPQTGIVDECCFRSCDLRRLEMYCAPLKPAKSV	–	9.1	1.01
IGF-I S34A (on G1S-A70V) displayed on phage (ligand, not shown: large carriers) SPETLCGAELVDALQFVCGDRGFYFNKPTGYGSASRRAPQTGIVDECCFRSCDLRRLEMYCAPLKPAKSV	–	9.5	1.65
IGF-I T29A (on G1S-A70V) displayed on phage (ligand, not shown: large carriers) SPETLCGAELVDALQFVCGDRGFYFNKPAGYGSSSRRAPQTGIVDECCFRSCDLRRLEMYCAPLKPAKSV	–	7.3	1.23
IGF-I Y31A (on G1S-A70V) displayed on phage (ligand, not shown: large carriers) SPETLCGAELVDALQFVCGDRGFYFNKPTGAGSSSRRAPQTGIVDECCFRSCDLRRLEMYCAPLKPAKSV	–	6.8	0.73
